Laboratory results taken from PMC12224988, “The MdHB7L–MdICE1L–MdHOS1 Module Fine‐Tunes Apple Cold Response via CBF‐Dependent and CBF‐Independent Pathways”.

T1: MdHB7L-HIS (UniProt D9ZJ22 1-236)
T1 sequence: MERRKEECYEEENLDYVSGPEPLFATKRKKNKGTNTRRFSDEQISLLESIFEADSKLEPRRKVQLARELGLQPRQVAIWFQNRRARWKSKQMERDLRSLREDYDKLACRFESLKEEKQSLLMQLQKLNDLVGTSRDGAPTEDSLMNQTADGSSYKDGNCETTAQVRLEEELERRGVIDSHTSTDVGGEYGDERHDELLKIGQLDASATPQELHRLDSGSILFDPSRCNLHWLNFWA

B1: pMdERD5-1-HB (dsDNA)
DNA 1: GAACTGCCTATATAATTAACAAGCTTCAGG
DNA 2: CCTGAAGCTTGTTAATTATATAGGCAGTTC
B2: pMdRD26-3-HB (dsDNA)
DNA 1: ATAGAAATAAATAATTGACGAGATAAATAG
DNA 2: CTATTTATCTCGTCAATTATTTATTTCTAT
B3: pMdCBF3-HB-P1 (dsDNA)
DNA 1: AAAAATAAAATGATTAGCCTGGCGCATCTA
DNA 2: TAGATGCGCCAGGCTAATCATTTTATTTTT
B4: pMdERDL6-7-2-HB (dsDNA)
DNA 1: CAATATAATTAATTAAAAATTTTAAACTTTTCAACTAATTATGTTAG
DNA 2: CTAACATAATTAGTTGAAAAGTTTAAAATTTTTAATTAATTATATTG
B5: pMdPRX53-1-HB (dsDNA)
DNA 1: AATAGACCTACTAATTGGCTCACATATGCA
DNA 2: TGCATATGTGAGCCAATTAGTAGGTCTATT
B6: pMdCBF1-HB-P3 (dsDNA)
DNA 1: TAGCAACTAATTAAGTCTTCAATAATTTCTAAAAGCA
DNA 2: TGCTTTTAGAAATTATTGAAGACTTAATTAGTTGCTA
B7: pMdCBF1-HB-P4 (dsDNA)
DNA 1: GAAATTAAGTACTAATTGTTCAGTACCAAG
DNA 2: CTTGGTACTGAACAATTAGTACTTAATTTC
B8: pMdPRX53-2-HB (dsDNA)
DNA 1: AATACGCCTCTAATTATTAGGTGCTTTTTG
DNA 2: CAAAAAGCACCTAATAATTAGAGGCGTATT
B9: pMdERDL6-7-5-HB (dsDNA)
DNA 1: ATGCAGAATCATTTATCCTTAATTAATCATA
DNA 2: TATGATTAATTAAGGATAAATGATTCTGCAT
B10: pMdCBF1-HB-P1 (dsDNA)
DNA 1: AAAGCATAGAAATAATTCCAAAACTATTTT
DNA 2: AAAATAGTTTTGGAATTATTTCTATGCTTT
B11: pMdPRX52-1-HB (dsDNA)
DNA 1: GTTAAACCAATTTAATTAATAAGATCTTAT
DNA 2: ATAAGATCTTATTAATTAAATTGGTTTAAC
B12: pMdERDL6-7-1-HB (dsDNA)
DNA 1: GCATTTTATAATTGTTTATTATTTTTAATTAGAAAAAATC
DNA 2: GATTTTTTCTAATTAAAAATAATAAACAATTATAAAATGC
B13: pMdERDL6-7-4-HB (dsDNA)
DNA 1: CTTAAAATTTCTTAATTATCAGTTAACACC
DNA 2: GGTGTTAACTGATAATTAAGAAATTTTAAG
B14: pMdRD26-4-HB (dsDNA)
DNA 1: ATAAATATAATTACCTGTGAGTTGATTATA
DNA 2: TATAATCAACTCACAGGTAATTATATTTAT
B15: pMdPRX53-3-HB (dsDNA)
DNA 1: TAAGTCTTTGTGTAATTAACAAAACAACGA
DNA 2: TCGTTGTTTTGTTAATTACACAAAGACTTA
B16: pMdPRX52-5-HB (dsDNA)
DNA 1: AATTAAGCTAAATCATTAACAATTTTCATT
DNA 2: AATGAAAATTGTTAATGATTTAGCTTAATT
B17: pMdPAP2-1-HB (dsDNA)
DNA 1: GATGTGTGTTGTAATTAGTTACACGATTCT
DNA 2: AGAATCGTGTAACTAATTACAACACACATC
B18: pMdRD26-1-HB (dsDNA)
DNA 1: ATGCGACCATTAATTAAACTTACAAAATGT
DNA 2: ACATTTTGTAAGTTTAATTAATGGTCGCAT
B19: pMdRD26-2-HB (dsDNA)
DNA 1: TCATTAAAGAGATAATTATGAAATAAAATA
DNA 2: TATTTTATTTCATAATTATCTCTTTAATGA
B20: pMdPAP2-2-HB (dsDNA)
DNA 1: GCACCAAGTCCAATTATTGAGCAATTAATG
DNA 2: CATTAATTGCTCAATAATTGGACTTGGTGC
B21: pMdPRX52-4-HB (dsDNA)
DNA 1: CTTGTCCGTAAATGATTGACATTGGTTTAC
DNA 2: GTAAACCAATGTCAATCATTTACGGACAAG
B22: pMdCBF3-HB-P2 (dsDNA)
DNA 1: CACTGTCGATTTAAATCATTCATACAGAAA
DNA 2: TTTCTGTATGAATGATTTAAATCGACAGTG
B23: pMdERDL6-7-3-HB (dsDNA)
DNA 1: CTTCATATCTTAATCATTCATCATGTATCG
DNA 2: CGATACATGATGAATGATTAAGATATGAAG
B24: pMdCBF1-HB-P2 (dsDNA)
DNA 1: CTATTATTATTAATTACTTTTTTCACATAA
DNA 2: TTATGTGAAAAAAGTAATTAATAATAATAG
B25: pMdERD5-3-HB (dsDNA)
DNA 1: ATTGTTTGTATTTAATTGTAAATAAAAATA
DNA 2: TATTTTTATTTACAATTAAATACAAACAAT
B26: pMdPRX52-2-HB (dsDNA)
DNA 1: TATTAAATCAGAATTATTAAGAGAAAATAA
DNA 2: TTATTTTCTCTTAATAATTCTGATTTAATA
B27: pMdPRX52-3-HB (dsDNA)
DNA 1: CAAATGTAATTAGCATTAATCCCAACTAACTATAAAAATGATTATCCTTG
DNA 2: CAAGGATAATCATTTTTATAGTTAGTTGGGATTAATGCTAATTACATTTG
B28: pMdERD5-2-HB (dsDNA)
DNA 1: TCTTTTTAGACCCTAATTATAGGGAAAGGG
DNA 2: CCCTTTCCCTATAATTAGGGTCTAAAAAGA
B29: pMdERDL6-1-1-HB (dsDNA)
DNA 1: TTAGGATAGTAATTGGTAACTCTCGACTCC
DNA 2: GGAGTCGAGAGTTACCAATTACTATCCTAA
B30: pMdERD5-4-HB (dsDNA)
DNA 1: TTAAGACTAGCTTAATTGCGAGGATATCAT
DNA 2: ATGATATCCTCGCAATTAAGCTAGTCTTAA

What follows are binders tested against T1, MdHB7L-HIS (assay: EMSA; Beyotime Chemiluminescent EMSA Kit per manufacturer; buffer, salt, pH and temperature not given). Conditions: protein: recombinant; tags: His (pET28a; BamHI/SalI site primers, no stop codon in reverse primer); chain copies: 2; label: biotin; blunt.
B1: binds.
B2: binds.
B3: binds.
B4: binds.
B5: binds.
B6: binds.
B7: binds.
B8: binds.
B9: binds.
B10: binds.
B11: binds.
B12: binds.
B13: binds.
B14: no binding.
B15: no binding.
B16: binds.
B17: no binding.
B18: binds.
B19: binds.
B20: binds.
B21: binds.
B22: binds.
B23: binds.
B24: binds.
B25: binds.
B26: binds.
B27: binds.
B28: binds.
B29: binds.
B30: binds.
